# Measurements as given in publication PMC3164656, “Burkholderia cenocepacia BC2L-C Is a Super Lectin with Dual Specificity and Proinflammatory Activity” (PLoS Pathogens, 2011).
# B1: BC2L-C: soluble hexameric lectin from Burkholderia cenocepacia with fucose- and mannose/heptose-binding domains, recombinant (protein)
# chain: MADSQTSSNRAGEFSIPPNTDFRAIFFANAAEQQHIKLFIGDSQEPAAYHKLTTRDGPREATLNSGNGKIRFEVSVNGKPSATDARLAPINGKKSDGSPFTVNFGIVVSEDGHDSDYNDGIVVLQWPIG
# What was measured:
# [1] = biological target: BC2L-C-nt, N-terminal TNF-α-like domain of BC2L-C (Burkholderia cenocepacia); experiment: SEC-MALS; Superdex 200, 20 mM Tris, 250 mM NaCl, 1 mM CaCl2, pH 7.5; loaded at 4.2 mg/mL BC2L-C, 7.5 mg/mL BC2L-C-nt, 10.7 mg/mL BC2L-C-ct; MALLS with refractometry
# [2] = tested on: B. cenocepacia K56-2; experiment: Mannose-dependent lectin extraction from bacterial surface (Western blot); set-up: species or system Burkholderia cenocepacia; details: 50 mM D-mannose, 5 min, FLAG-tagged lectins
# Description: Culture supernatant proteins were precipitated with trichloroacetic acid as described previously The protein concentration was determined by Bradford assay (Bio-Rad) and 4 µg of protein were loaded on a 18% SDS-PAGE gel. After electrophoresis, gels were transferred to nitrocellulose membranes for immunoblot analysis. The membranes were incubated with the 4RA2 monoclonal antibody (Neoclone) cross-reacting with the B. cenocepacia RNA polymerase subunit alpha (cytosolic protein, cell lysis control) and the FLAG M2 monoclonal antibody (Sigma). The Alexa Fluor 680 goat anti-mouse IgG (Molecular Probes) was used as a secondary antibody. Detection was performed using the Odyssey Infrared Imager (LI-COR Biosciences).
# Overnight cultures were diluted to an OD600 nm of 0.03 in 50 mL LB and grown at 37°C for 8 h. Cells were then centrifuged at 5000 g for 10 min. The pellet was washed twice with 25 mL of phosphate buffered saline (PBS) and finally resuspended in 1.5 mL PBS. Five hundred µL aliquots were placed into two eppendorf tubes to which 500 µL of PBS or 500 µL of 100 mM D-mannose made in PBS (50 mM final concentration) was added. Samples were gently mixed by inversion and incubated for 5 min at room temperature. Samples were centrifuged at 6000 g for 5 min, supernatants were collected (800 µL) and filter-sterilized using […] filters. […]
# [3] = tested on: BC2L-C-nt; set-up: method as in PMID 20152153; details: cited from earlier work
# [4] = biological target: BC2L-C-ct, C-terminal domain of BC2L-C (Burkholderia cenocepacia); experiment: SEC-MALS; Superdex 200, 20 mM Tris, 250 mM NaCl, 1 mM CaCl2, pH 7.5; loaded at 4.2 mg/mL BC2L-C, 7.5 mg/mL BC2L-C-nt, 10.7 mg/mL BC2L-C-ct; MALLS with refractometry
# [5] = biological target: BC2L-C, soluble lectin from Burkholderia cenocepacia (whole protein) (Burkholderia cenocepacia) (UniProt B4EH87); experiment: as above
# [6] = tested on: BEAS-2B cells; experiment: IL-8 production by respiratory epithelial cells (ELISA); assay type: cell-based, human; details: 0.3 µM, 15 h, ELISA of supernatants
# Description: BC2L-C and its separate domains were used for the stimulation of the human bronchial cell line BEAS-2B obtained from the American Type Cell Collection (Manassas, VA). Cells were maintained in serial passage in F-12K culture medium supplemented with 10% FCS, 1% penicillin and streptomycin, 1% glutamine and 10 mM HEPES in 75 cm2 culture flasks and seeded at 5×10^4 on 24-well plates 3 days before stimulation. In all experiments, BEAS-2B cells were stimulated during 15 hours with the different agonists in a 300 µL medium. IL-8 concentrations in cell culture supernatants were determined using a Duo-Set ELISA kit. Duo-Set ELISA kit and the recombinant human TNF-α were obtained from R&D Systems (Minneapolis, MN).
molecule,measurement,setting,value
"BC2L-C-nt, N-terminal TNF-α-like domain of BC2L-C (domain or fragment)",stoichiometry N,[1],3
"OC[C@H]1OC(O)[C@@H](O)[C@@H](O)[C@@H]1O (stereo partly drawn) [D-Man, D-mannose]",release of surface-bound lectins into supernatant,[2],BC2L-B and -C lectins are released into the supernatant
C[C@H](O)[C@@H](O)[C@@H](O)[C@H](O)C=O [fucose],binding of isolated BC2L-C-nt domain,[3],binds strongly to fucose
"BC2L-C-ct, C-terminal domain of BC2L-C (domain or fragment)",stoichiometry N,[4],2
"BC2L-C, soluble lectin from Burkholderia cenocepacia (whole protein) (from UniProt B4EH87 1-129) (natural protein)",stoichiometry N,[5],6
B1,IL-8 production,[6],markedly increase in IL-8 production
